Assay [1] has as its target T1, Recombinant truncated human his-tag B7-H3 protein (amino acids 1-461 of SEQ ID NO:1 with a carboxy terminal … (human, UniProt Q5ZPR3 29-461)).
T1 construct: also called his-tagged B7-H3 protein; recombinant human his-tagged B7-H3 protein
T1 sequence: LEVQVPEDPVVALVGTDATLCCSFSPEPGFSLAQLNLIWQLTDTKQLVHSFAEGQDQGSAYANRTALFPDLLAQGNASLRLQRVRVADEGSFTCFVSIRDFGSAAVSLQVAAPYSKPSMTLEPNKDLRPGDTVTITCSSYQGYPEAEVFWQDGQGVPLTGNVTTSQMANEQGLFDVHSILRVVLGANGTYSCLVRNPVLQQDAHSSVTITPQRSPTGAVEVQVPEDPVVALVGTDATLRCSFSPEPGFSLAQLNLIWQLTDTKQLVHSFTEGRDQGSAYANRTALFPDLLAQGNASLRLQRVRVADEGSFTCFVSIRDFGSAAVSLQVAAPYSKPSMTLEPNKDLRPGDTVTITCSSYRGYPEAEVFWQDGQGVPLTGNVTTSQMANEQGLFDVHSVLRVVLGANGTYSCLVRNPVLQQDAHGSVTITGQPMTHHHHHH
The assay is described as follows: SPR (BIAcore 3000), antibody captured by anti-human Fc, his-tagged B7-H3 as analyte from 100 nM, 1:1 model. In general terms: Surface plasmon resonance follows binding to a sensor surface in real time, without labels.

Another assay deals with T2, human B7-H1 (human, UniProt Q9NZQ7 19-239).
T2 construct: Bought protein; also called PD-L1; CD274
Put plainly: ELISA, antigen coated at 50 ng/well, antibody serially diluted.

In another assay the target is T3, human B7-H5 (human, UniProt Q9H7M9 33-194).
T3 construct: Bought protein; also called VISTA; GI24
The description is as above.

The next assay addresses T4, human B7-H7 (human, UniProt Q9UM44 23-344).
T4 construct: Bought protein; also called HHLA2
T4 sequence (looked up): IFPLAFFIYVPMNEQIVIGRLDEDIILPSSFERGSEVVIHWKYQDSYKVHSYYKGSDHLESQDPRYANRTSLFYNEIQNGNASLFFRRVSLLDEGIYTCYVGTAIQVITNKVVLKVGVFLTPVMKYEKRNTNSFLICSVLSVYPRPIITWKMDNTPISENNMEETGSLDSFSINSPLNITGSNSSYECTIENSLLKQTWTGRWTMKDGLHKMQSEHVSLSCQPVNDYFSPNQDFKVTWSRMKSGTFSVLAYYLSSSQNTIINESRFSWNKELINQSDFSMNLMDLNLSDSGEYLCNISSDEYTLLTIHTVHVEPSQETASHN
The description is as above.

The next assay has as its target T5, human B7.1 (human, UniProt P33681 35-242).
T5 construct: Bought protein; also called CD80
T5 sequence (looked up): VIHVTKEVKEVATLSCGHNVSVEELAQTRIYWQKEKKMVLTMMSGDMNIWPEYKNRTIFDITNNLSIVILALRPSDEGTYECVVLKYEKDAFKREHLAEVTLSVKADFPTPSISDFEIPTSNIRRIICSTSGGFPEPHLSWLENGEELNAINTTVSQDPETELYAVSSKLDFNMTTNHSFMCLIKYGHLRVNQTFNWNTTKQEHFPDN
The description is as above.

The target in another assay is T6, human B7-H4 (human, UniProt Q7Z7D3 25-258, limits assumed).
T6 construct: Bought protein; also called B7S1; B7x
T6 sequence (looked up): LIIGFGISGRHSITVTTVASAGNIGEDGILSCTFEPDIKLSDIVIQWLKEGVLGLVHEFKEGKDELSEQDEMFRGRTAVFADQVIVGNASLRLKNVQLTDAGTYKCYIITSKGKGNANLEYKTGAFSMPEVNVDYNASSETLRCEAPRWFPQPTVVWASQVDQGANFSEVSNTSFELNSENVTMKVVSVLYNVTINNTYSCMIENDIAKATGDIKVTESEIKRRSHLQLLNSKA
The description is as above.

For another assay, the target named is T7, human B7-H2 (human, UniProt O75144 19-258, limits assumed).
T7 construct: Bought protein; also called ICOSL
T7 sequence (looked up): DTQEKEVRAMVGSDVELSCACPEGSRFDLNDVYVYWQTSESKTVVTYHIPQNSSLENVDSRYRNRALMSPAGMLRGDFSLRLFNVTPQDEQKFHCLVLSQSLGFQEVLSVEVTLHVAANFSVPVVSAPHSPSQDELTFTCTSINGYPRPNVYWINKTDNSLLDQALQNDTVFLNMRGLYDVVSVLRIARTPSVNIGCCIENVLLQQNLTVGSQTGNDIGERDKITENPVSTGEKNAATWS
The description is as above.

Another assay concerns the target T8, human B7.2 (human, UniProt P42081 24-247, limits assumed).
T8 construct: Bought protein; also called CD86
T8 sequence (looked up): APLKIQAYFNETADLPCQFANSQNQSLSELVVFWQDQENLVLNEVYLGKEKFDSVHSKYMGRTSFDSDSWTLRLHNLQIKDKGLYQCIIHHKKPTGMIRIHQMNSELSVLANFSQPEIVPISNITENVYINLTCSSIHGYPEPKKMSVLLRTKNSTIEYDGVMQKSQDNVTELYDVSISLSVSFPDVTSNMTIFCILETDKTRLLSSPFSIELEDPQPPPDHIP
Described as above.

A further assay addresses T9, human B7-H6 (human, UniProt Q68D85 25-262).
T9 construct: Bought protein; also called NCR3LG1
T9 sequence (looked up): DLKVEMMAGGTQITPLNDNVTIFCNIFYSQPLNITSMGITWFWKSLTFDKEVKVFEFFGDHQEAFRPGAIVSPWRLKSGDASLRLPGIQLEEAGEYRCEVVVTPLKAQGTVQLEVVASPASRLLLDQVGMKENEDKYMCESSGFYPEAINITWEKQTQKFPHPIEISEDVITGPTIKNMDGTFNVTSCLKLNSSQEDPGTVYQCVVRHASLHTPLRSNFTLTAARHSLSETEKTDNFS
The description is as above.

The target in assay [2] is T10, rat B7-H3 antigen protein (Sino Biologicals; Cat. No. 80380-R02H-20) (rat, UniProt Q7TPB4 29-248).
T10 construct: Bought protein
T10 sequence (looked up): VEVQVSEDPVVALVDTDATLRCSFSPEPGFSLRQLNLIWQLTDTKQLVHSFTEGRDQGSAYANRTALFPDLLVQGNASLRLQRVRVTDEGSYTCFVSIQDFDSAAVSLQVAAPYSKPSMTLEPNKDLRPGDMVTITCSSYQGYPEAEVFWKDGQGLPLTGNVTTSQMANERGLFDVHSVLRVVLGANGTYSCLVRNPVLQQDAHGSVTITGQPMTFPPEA
The assay is described as follows: ELISA, antigen coated at 50 ng/well. (In an ELISA, binding on a coated surface is turned into a signal by an enzyme label.)

In assay [3] the target is T11, Human B7-H3 protein (UniProt Q5ZPR3-1) on cells (human, UniProt Q5ZPR3 29-534).
T11 construct: This is endogenous B7-H3 on U2OS, SK-N-BE(2), A375, A549 and Panc-1 cells, on monocyte-derived dendritic cells and in patient tumour tissue; also called CD276; surface antigen expressed by human cancer cells
T11 sequence: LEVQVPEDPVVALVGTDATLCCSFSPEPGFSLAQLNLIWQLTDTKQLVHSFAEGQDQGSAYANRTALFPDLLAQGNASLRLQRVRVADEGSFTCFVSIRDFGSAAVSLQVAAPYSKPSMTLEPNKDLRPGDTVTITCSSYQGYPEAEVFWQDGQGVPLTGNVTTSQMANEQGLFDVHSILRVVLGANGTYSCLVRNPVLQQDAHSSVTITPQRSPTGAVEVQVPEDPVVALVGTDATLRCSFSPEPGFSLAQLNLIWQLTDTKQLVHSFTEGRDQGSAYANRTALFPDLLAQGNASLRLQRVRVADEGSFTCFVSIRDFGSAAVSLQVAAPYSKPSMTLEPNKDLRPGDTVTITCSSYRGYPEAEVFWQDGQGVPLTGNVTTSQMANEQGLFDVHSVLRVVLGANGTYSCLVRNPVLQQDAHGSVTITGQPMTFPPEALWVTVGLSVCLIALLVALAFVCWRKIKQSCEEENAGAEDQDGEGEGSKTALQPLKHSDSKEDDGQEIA
The assay is described as follows: flow cytometry on human osteosarcoma U2OS cells.

Assay [4] addresses T1, Recombinant truncated human his-tag …. Put plainly: SPR (Biacore T200), antibody captured by anti-human Fc, his-tagged B7-H3 as analyte from 100 nM, 1:1 model.

T2 sequence (Q9NZQ7 19-239 limits assumed): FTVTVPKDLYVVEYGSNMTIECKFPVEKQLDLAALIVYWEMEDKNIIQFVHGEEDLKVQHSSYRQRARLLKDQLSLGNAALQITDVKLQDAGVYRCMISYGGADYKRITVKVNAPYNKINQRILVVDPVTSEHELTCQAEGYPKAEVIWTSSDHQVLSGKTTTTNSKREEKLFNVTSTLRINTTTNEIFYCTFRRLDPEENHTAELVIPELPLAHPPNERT

B1: B3-2H1 (antibody, V domains shown)
VH: QVQLQQSGAEVEKPGASVEVSCRASGYTFTSYYIHWVRQAPGQGLEWVGMITPLSGGTTYAQKFQGRVTMTRDTSTSTVYMNLSSLRSEDTAVYFCARGGRAVASSFEFWGQGTLVTVSS
VL: QSVLTQPRSVSGSPGQSVTISCTGTSSDVGGYNYVSWYQQHPGKAPKLMIYDVSKRPSGVPDRFSGSKSGNTASLTISGLQAEDEADYYCCSYAGSYTEVFGTGTKVTVL
notes: It was captured by anti-human Fc
Consider B1, for which, in assay [1], the binding result is recorded as “binds”.

B2: B3-2E3 (antibody, V domains shown)
VH: QVQLVESGGGVVQPGRSLRLSCVASEFTFSSYTIHWVRQAPGKGLEWVAVISHDGSNKYYADSVKGRFTISRDNSKNTLYLQMSSLRAEDTAVYYCAGDRYVYNYYGMDVWGQGTTVTVSS
VL: DIVMTQSPSSLSAYVGDRVTITCRASQDIRTYLAWYQQKPGTAPKLLISGASILRSGVPSRFSGSGSGRDFTLSITSLQPEDFATYYCQQLYSYPPWTFGQGTKVEIK
notes: as for B1
Consider B2, for which, in assay [1], the binding result was “binds”.

B3: B3-D1 (antibody, V domains shown)
VH: EVQLVQSGAELKKPGASVKVSCKASGHTFTSYYIHWVRQAPGQGLEWMGIINPSGDSTSYAQKFQGRVTMTRDTSTSTVYMELSSLTSEDTAVYYCARAIDYGGPYWYLDLWGRGTLVTVSS
VL: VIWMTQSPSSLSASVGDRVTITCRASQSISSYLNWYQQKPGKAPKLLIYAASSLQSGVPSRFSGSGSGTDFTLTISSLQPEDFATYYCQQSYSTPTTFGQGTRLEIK
notes: as for B1
In the case of B3, the binding result in [1] was “binds”.

B4: B3-A6 (antibody, V domains shown)
VH: QVQLQQSGPGLVKPSQTLSLTCAISGDSVSSNSAAWNWIRQSPSRGLEWLGRTYYRSKWYNDYAVSVKSRITINPDTSKNQFSLQLNSVTPEDTAVYYCAREGIAVAALWDWGQGTLVTVSS
VL: QAVLTQPPSASGTPGQRVTISCSGSSSNIGSNYVSWYQQLPGTAPKLLMYSNNHRPSGVPDRFSGSKSGTSASLAISGLRTEDEADYYCAAWDDSLSGQVFGGGTKLTVL
notes: It was captured by anti-human Fc, so it was tested as an antibody with a human Fc
Turning to B4, the binding result in assay [1] was “binds”.

B5: anti-B7-H3 antibody (VA clone) (antibody, V domains shown)
VH: QVQLVQSGAEVKKPGASVKVSCKASGYTFTDSYMHWVRQAPGQGLEWMGWISPRTGGTDYAQKFQGRVTMTRDTSISTAYMELSRLRSDDTAVYYCARGSSRGNDYWGQGTLVTVSS
VL: QSVLTQPASVSGSPGQSITISCTGTGSDVGGYNYVSWYQQHPGKAPKLIIYDVTKRPSGFSNRFSGSKSGNTASLTISGLQAEDEADYYCSSYTSRRTYVFGTGTKLTVL
notes: It was tested as a fully human IgG ('IgG protein', captured by anti-human Fc); also called B7-H3-VA; B7-H3 VA
For the molecule B5, the binding result with human B7-H1, in the assay with human B7-H5, with human B7-H7, in the assay with human B7.1, with human B7-H4 and with human B7-H2 was “no binding” in each case. The binding result with human B7.2 is recorded as “no binding”; with human B7-H6, “no binding”; in [2] it was “binds”.

B6: anti-B7-H3 antibody (VA LALA clone) (antibody, V domains shown)
VH: B5 VH
VL: B5 VL
notes: also called B7-H3-VA LALA; B7-H3-VA-LALA
For B6, the binding result with human B7-H1, with human B7-H5, with human B7-H7, with human B7.1, with human B7-H4 and in the assay with human B7-H2 was “no binding” each time. In addition, the binding result in the assay with human B7.2 and with human B7-H6 was “no binding” each time.

B7: Enoblituzumab (B7-H3 Macrogenics; MGA271; MG-B7-H3) (antibody, human IgG1, kappa, V domains shown)
VH: EVQLVESGGGLVQPGGSLRLSCAASGFTFSSFGMHWVRQAPGKGLEWVAYISSDSSAIYYADTVKGRFTISRDNAKNSLYLQMNSLRDEDTAVYYCGRGRENIYYGSRLDYWGQGTTVTVSS
VL: DIQLTQSPSFLSASVGDRVTITCKASQNVDTNVAWYQQKPGKAPKALIYSASYRYSGVPSRFSGSGSGTDFTLTISSLQPEDFATYYCQQYNNYPFTFGQGTKLEIKR
notes: also called B7-H3 MG; Macrogenics' B7-H3
Consider B7, for which the binding result in [2], in assay [3] and in [4] was “binds” in each case.

B8: B3-4F7 (antibody, V domains shown)
VH: QVQLVQSGAEVKKPGASVKVSCKASGYTFTSYGISWVRQAPGQGLEWMGWISAYNGNTNYAQKLQGRVTMTTDTSTSTAYMELRSLRSDDTAVYYCARDGYYGSGSHPWGQGTLVTVSS
VL: QSVVTQPPSVSGAPGQRVTISCTGNSSNIGAGYDVHWYQQLPGTAPKLLIYGNSNRPSGIPDRFSGSKSGTSATLGITGLQTGDEADYYCGTWDSSLSAGVFGTGTKVTVL
notes: as for B1
For B8, the binding result in assay [1] was “binds”.

The values above are taken from EP4473018A2 (dated 2024).
